This passage reports binding signal (z-score (mean of top ten 7-mers)) results from paper PMC12990809.

What all share (assay): pulldown
For data set [1], the target named is T1, RBM47 ins277_K (Meleagris gallopavo) (UniProt G1NI04).
T1 sequence: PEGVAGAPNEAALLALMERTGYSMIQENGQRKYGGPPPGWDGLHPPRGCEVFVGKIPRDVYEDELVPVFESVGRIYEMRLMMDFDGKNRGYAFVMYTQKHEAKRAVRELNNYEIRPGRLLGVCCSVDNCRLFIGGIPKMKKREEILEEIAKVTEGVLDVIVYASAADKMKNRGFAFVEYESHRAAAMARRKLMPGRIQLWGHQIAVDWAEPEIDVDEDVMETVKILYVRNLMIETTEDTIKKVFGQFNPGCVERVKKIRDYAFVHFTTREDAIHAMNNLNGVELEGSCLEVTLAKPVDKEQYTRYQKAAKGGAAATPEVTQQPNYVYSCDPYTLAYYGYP
The settings on record: 20 nM protein, 1.5 uM RNA pool; 20 mM HEPES pH 7.8, 70 mM KCl, 10 mM NaCl, 10% glycerol, 2 mM DTT, 0.1 ug/uL BSA; 30 min, 4 C.

The next data set addresses HNRNPC (Homo sapiens) (UniProt P07910). The settings on record: 20 nM protein, 1.5 uM RNA pool; 20 mM HEPES pH 7.8, 70 mM KCl, 10 mM NaCl, 10% glycerol, 2 mM DTT, 0.1 ug/uL BSA; 30 min, 4 C (protocol of this paper; not …); cited from earlier work.
For data set [2], the target named is T2, SRSF3 (Tetraodon nigroviridis) (UniProt H3C295).
T2 sequence: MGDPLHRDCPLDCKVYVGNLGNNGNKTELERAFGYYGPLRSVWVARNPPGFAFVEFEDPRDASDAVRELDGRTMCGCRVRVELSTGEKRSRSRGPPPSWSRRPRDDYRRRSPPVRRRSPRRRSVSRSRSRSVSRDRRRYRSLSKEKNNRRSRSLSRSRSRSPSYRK
To be noted: 20 nM protein, 1.5 uM RNA pool; 20 mM HEPES pH 7.8, 70 mM KCl, 10 mM NaCl, 10% glycerol, 2 mM DTT, 0.1 ug/uL BSA; 30 min, 4 C.

In data set [3] the target is T3, CBG05471 (Caenorhabditis briggsae) (UniProt A8WZY6).
T3 sequence: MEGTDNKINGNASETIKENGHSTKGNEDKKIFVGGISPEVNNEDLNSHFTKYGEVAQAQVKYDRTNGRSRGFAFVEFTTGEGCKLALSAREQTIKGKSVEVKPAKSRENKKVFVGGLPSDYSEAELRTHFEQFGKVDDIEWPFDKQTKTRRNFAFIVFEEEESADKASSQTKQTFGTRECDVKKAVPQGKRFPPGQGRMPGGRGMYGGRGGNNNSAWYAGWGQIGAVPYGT
To be noted: 20 nM protein, 1.5 uM RNA pool; 20 mM HEPES pH 7.8, 70 mM KCl, 10 mM NaCl, 10% glycerol, 2 mM DTT, 0.1 ug/uL BSA; 30 min, 4 C.

Data set [4] concerns the target T4, Smp_036270 E366G (Schistosoma mansoni) (UniProt A0A3Q0KEI3).
T4 sequence: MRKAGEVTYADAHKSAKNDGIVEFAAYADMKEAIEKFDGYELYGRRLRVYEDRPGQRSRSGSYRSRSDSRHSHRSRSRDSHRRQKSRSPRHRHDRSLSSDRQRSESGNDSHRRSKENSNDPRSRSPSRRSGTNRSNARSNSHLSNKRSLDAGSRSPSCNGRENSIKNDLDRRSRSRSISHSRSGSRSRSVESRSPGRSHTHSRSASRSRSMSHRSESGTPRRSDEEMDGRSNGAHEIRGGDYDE
The settings on record: 20 nM protein, 1.5 uM RNA pool; 20 mM HEPES pH 7.8, 70 mM KCl, 10 mM NaCl, 10% glycerol, 2 mM DTT, 0.1 ug/uL BSA; 30 min, 4 C.

In data set [5] the target is SNRPB2 (Meleagris gallopavo) (UniProt G1N364). To be noted: 20 nM protein, 1.5 uM RNA pool; 20 mM HEPES pH 7.8, 70 mM KCl, 10 mM NaCl, 10% glycerol, 2 mM DTT, 0.1 ug/uL BSA; 30 min, 4 C.
SNRPB2 (Meleagris gallopavo), sequence (G1N364 entry or part of it): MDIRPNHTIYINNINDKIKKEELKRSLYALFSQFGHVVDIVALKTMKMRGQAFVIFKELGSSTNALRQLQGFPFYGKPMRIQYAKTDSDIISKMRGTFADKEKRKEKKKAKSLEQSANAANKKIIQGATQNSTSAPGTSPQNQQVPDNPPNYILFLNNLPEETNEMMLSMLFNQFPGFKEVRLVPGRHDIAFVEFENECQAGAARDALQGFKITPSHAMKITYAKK
Data set [6] concerns the target T5, NEMVEDRAFT_v1g214798 (Nematostella vectensis) (UniProt A7SN30).
T5 sequence: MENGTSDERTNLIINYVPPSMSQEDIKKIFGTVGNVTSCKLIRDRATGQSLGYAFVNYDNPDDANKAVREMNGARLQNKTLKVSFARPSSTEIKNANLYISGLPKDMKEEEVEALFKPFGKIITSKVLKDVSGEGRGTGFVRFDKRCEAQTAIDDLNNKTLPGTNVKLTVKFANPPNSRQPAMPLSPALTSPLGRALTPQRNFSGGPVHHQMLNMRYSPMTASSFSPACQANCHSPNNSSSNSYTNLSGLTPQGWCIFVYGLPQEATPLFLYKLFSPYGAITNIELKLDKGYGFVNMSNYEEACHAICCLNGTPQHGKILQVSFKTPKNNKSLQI
To be noted: 20 nM protein, 1.5 uM RNA pool; 20 mM HEPES pH 7.8, 70 mM KCl, 10 mM NaCl, 10% glycerol, 2 mM DTT, 0.1 ug/uL BSA; 30 min, 4 C.

The next data set concerns the target HNRNPA2B1 (Homo sapiens) (UniProt P22626). The settings on record: 20 nM protein, 1.5 uM RNA pool; 20 mM HEPES pH 7.8, 70 mM KCl, 10 mM NaCl, 10% glycerol, 2 mM DTT, 0.1 ug/uL BSA; 30 min, 4 C (protocol of this paper; not …); cited from earlier work.
The target of data set [7] is T6, Smp_032060 (Schistosoma mansoni) (UniProt G4LYM0).
T6 sequence: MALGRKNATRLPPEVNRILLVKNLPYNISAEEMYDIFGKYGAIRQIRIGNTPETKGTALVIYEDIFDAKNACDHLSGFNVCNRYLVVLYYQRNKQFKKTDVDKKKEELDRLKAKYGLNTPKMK
The settings on record: 20 nM protein, 1.5 uM RNA pool; 20 mM HEPES pH 7.8, 70 mM KCl, 10 mM NaCl, 10% glycerol, 2 mM DTT, 0.1 ug/uL BSA; 30 min, 4 C.

HNRNPC (Homo sapiens), sequence (P07910 1-131): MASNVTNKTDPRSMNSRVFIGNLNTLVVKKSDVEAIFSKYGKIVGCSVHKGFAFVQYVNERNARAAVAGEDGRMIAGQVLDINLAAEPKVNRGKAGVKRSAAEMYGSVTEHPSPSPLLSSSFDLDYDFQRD
HNRNPA2B1 (Homo sapiens), sequence (P22626 1-233): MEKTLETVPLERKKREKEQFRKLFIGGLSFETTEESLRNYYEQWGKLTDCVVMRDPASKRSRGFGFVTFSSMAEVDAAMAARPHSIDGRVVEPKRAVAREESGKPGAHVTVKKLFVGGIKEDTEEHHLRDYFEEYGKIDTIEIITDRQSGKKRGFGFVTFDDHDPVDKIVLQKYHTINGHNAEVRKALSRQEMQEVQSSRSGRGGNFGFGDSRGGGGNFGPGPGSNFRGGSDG

Substance AGAUGA [RNAcompete motif RNCMPT00394] had a binding signal (z-score (mean of top ten 7-mers)) in [1] of 8.98. Consider UUUUUU [RNAcompete motif RNCMPT00025], for which the binding signal (z-score (mean of top ten 7-mers)) with HNRNPC (Homo sapiens) is 15.8. The substance AACAACG [RNAcompete motif RNCMPT00419] returned a binding signal (z-score (mean of top ten 7-mers)) in data set [2] of 7.35. With AGUAA [RNAcompete motif RNCMPT00422], the binding signal (z-score (mean of top ten 7-mers)) in [3] turned out to be 9.16.

Consider CGGAGG [RNAcompete motif RNCMPT00417], for which the binding signal (z-score (mean of top ten 7-mers)) in [4] amounted to 13.5. Substance UUGCAC [RNAcompete motif RNCMPT00425] showed a binding signal (z-score (mean of top ten 7-mers)) in data set [5] of 7.95. Consider UUNUUUU [RNAcompete motif RNCMPT00421], for which the binding signal (z-score (mean of top ten 7-mers)) in data set [6] was determined as 11.9. Regarding UAGGGA [RNAcompete motif RNCMPT00024], in the data set with HNRNPA2B1 (Homo sapiens), the binding signal (z-score (mean of top ten 7-mers)) was 8.86. Take UUUUNCC [RNAcompete motif RNCMPT00396]: the binding signal (z-score (mean of top ten 7-mers)) in data set [7] is 9.57.
